Each block holds one binder with its values, some of them ahead of it.
Assays:
[1] = biological target: CtIP (residues 45-897), human, from pCMV-HA-ns311 (human, UniProt Q99708 45-897); experiment: co-immunoprecipitation (anti-Flag) / anti-CtIP western blot, transfected 293T cells
Description: (§1) FIG. 6: Interaction between LM04 and CtIP requires a single LIM domain and appears to be specific for the LMO subclass. A, CtIP associates with LMO4 and LMO2. […] Lysates were prepared and proteins immunoprecipitated with the indicated specific antisera. F, Flag; C, control isotype-matched monoclonal antibody. Immunoblotting was performed with the antibodies indicated under each panel. Lane 4 depicts the reciprocal immunoprecipitation experiment performed using an anti-CtIP antibody. The 25 kD bands in lane 4 represent light chain. Western blot analysis of lysates confirmed expression of CtIP and LMO proteins. Note the different size markers indicated for LMO proteins detected by western analysis using anti-Flag antibody (lane 4). B, The first LIM domain but not the second LIM domain of LMO4 interacts with CtIP. […] Cell extracts were immunoprecipitated with anti-Flag (F) antibody, then immunoblotted with anti-CtIP antisera. Western blot analysis of lysates confirmed expression of CtIP and LIM polypeptides (lower panels). […] Cell extracts were immunoprecipitated with anti-Flag (F) antibody, then immunoblotted with anti-CtIP antibody. Western blot analysis of lysates confirmed expression of CtIP and LIM proteins (lower panels). D, Interaction between endogenous LMO4 and CtIP proteins in HBL100 epithelial cells. […]

[2] = biological target: BRCA1 activation domain (amino acids 1293-1863) fused to the Gal4 DNA-binding domain (human, UniProt P04386 1-147; P38398 1293-1863); experiment: cell-based or functional assay
HA-CtIP (59-320) = biological target: T1, HA-CtIP (59-320) (human, UniProt Q99708 59-320); experiment: co-immunoprecipitation (anti-Flag) / anti-HA western blot, transfected 293T cells
T1 construct: range 59-320
T1 sequence (Q99708 59-320 limits assumed): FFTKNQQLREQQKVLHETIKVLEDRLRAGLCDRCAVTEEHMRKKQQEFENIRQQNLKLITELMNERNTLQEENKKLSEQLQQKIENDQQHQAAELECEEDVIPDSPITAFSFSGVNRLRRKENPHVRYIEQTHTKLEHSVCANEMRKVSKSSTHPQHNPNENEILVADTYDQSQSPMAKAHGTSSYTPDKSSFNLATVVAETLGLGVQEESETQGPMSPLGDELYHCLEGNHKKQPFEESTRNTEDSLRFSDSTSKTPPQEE
Description: (§2) FIG. 7: Two regions within CtIP specifically interact with LMO4. A, Schematic representation of wild-type CtIP and deletion mutant constructs that were tested for interaction with LMO4 in mammalian cells. The region that associates with BRCA1 and two putative leucine zipper (LZ) domains are indicated. A summary of each mutant's ability to interact with LMO4 is shown. […] Lysates were prepared and proteins immunoprecipitated using anti-Flag monoclonal antibody (F) or control isotype-matched (C) monoclonal antibody. After SDS-PAGE electrophoresis, western blotting was performed using α-HA antibody, specific for CtIP protein. Western blot analysis confirmed expression of Flag-LMO4 and CtIP mutant proteins (lower panels).
(§3) Cell extracts (0.5 ml) were prepared in whole cell lysis buffer (150 mM NaCl, 5 mM EDTA, 50 mM Tris pH7.5, 1% Nonidet P-40, 1 mM DTT) containing protease inhibitors (1 mM phenylmethylsulfonyl fluoride, 1 μg/ml leupeptin, 1 μg/ml pepstatin, 1 μg/ml aprotinin) and normalised for protein concentration, as determined by Bradford analysis (BioRad). Proteins were immunoprecipitated with either anti-Flag M2 (Sigma) or anti-myc 9E10 and protein G sepharose (Amersham Pharmacia Biotech.), and separated by SDS-PAGE (Novex). […]

HA-CtIP (281-620) = HA-CtIP (281-620) (human, UniProt Q99708 281-620); experiment: as above
HA-CtIP (281-620), sequence (Q99708 281-620 limits assumed): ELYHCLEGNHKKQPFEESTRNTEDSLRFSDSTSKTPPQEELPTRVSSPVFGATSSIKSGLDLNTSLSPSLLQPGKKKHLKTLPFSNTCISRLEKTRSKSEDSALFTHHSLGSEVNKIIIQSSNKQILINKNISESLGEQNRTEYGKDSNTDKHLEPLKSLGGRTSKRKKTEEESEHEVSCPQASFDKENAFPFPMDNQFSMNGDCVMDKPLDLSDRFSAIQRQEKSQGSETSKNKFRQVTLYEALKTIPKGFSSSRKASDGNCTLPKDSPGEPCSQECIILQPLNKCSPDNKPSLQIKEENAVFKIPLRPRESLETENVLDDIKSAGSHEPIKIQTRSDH
Description: as §2, §3

[3] = biological target: T2, HA-tagged BRCA1 SZ fragment (residues 1528-1863) (human, UniProt P38398 1528-1863, 35S-methionine-labeled in the in vitro binding assay); experiment: in vitro binding of 35S-labeled BRCA1-SZ to GST-LMO4 on glutathione sepharose, SDS-PAGE
T2 construct: also called BRCT (SZ) region
T2 sequence (P38398 1528-1863): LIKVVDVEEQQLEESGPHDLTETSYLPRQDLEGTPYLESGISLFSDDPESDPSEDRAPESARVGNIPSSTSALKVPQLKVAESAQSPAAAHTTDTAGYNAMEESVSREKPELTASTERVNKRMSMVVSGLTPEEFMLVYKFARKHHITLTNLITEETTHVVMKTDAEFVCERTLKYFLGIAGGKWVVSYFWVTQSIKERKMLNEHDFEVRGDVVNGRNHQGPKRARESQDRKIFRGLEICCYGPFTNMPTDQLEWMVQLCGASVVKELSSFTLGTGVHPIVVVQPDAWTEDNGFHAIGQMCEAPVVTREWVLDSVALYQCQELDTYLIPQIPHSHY
Description: FIG. 10: The C-terminal BRCT domains of BRCA1 mediate interaction with LMO4. […] Lysates were immunoprecipitated with anti-Flag (F) or control (C) antibody, then western blotted with anti-HA antibody. B, LMO4 and the BRCT domain interact in vitro. […] Bound proteins were analysed by SDS-PAGE. Arrow depicts the BRCA1-SZ protein. C, LMO4 and the BRCT (SZ) region of BRCA1 interact in yeast Hf7c cells. Yeast cells were cotransformed with the indicated expression vectors and plated on media deficient in his, leu and trp. Staining for β-galactosidase activity verified that the His⁺ colonies obtained for LMO4+CtIP and LMO4+BRCA1 (SZ) transformants were also β-Gal⁺. No colonies were obtained for Hf7c cells transformed with BRCA1 (SZ)+lamin, BRCA1 (SZ) alone or LMO4 alone.
Binding assays were carried out with a 10 μl aliquot of […] BRCA1-SZ primed lysate and 100 μl (50% slurry of GST-sepharose beads; Amersham Pharmacia) of GST-LMO4 or GST-only protein in GST interaction buffer (150 mM NaCl, 10 mM Tris pH 8, 0.3% NP-40, 1 mM DTT, 0.25% BSA and 0.5 mM phenylmethylsulfonyl fluoride) for 2 hours at 4° C. The beads were subsequently washed twice in GST interaction buffer containing BSA, followed by two more washes in GST interaction buffer without BSA. Finally, the bound BRCA1 C-terminal polypeptide was eluted by boiling the beads for 5 min in 30 μl loading buffer and analysed by SDS-PAGE.

[4] = biological target: T3, endogenous CtIP of human HBL100 breast epithelial cells (human, UniProt Q99708 1-897); experiment: immunoprecipitation of HBL100 nuclear extracts with anti-LMO4 antisera / anti-CtIP western blot (FIG. 6D)
T3 construct: mature; also called native CtIP
T3 sequence (Q99708 whole entry): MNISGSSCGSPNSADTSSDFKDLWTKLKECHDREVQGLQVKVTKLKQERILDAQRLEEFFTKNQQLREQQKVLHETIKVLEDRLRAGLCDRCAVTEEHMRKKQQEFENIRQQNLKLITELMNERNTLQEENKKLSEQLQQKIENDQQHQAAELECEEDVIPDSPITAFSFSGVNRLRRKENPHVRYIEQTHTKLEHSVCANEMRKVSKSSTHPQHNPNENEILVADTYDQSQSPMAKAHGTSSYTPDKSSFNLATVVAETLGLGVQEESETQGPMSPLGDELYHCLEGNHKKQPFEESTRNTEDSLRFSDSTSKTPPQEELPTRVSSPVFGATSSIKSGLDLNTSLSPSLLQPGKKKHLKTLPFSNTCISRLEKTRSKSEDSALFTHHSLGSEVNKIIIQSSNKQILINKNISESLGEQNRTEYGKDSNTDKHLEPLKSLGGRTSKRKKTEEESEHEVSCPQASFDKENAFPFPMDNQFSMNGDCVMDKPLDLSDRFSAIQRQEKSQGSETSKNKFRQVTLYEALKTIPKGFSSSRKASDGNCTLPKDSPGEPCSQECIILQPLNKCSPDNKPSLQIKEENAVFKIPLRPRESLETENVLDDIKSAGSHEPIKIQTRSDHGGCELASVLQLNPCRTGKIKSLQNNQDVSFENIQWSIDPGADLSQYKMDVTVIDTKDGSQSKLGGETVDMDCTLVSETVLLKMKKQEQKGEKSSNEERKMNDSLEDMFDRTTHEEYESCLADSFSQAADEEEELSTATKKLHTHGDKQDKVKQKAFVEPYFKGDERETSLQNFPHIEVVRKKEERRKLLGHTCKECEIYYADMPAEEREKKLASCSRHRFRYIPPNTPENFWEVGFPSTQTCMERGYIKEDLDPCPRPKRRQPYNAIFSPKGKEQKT
Description: as §1, with “A,” for “FIG. 6: Interaction between LM04 and CtIP requires a single LIM domain and appears to be specific for the LMO subclass. A,”, “cells. Nuclear extracts were immunoprecipitated with pre-immune serum (lane 1) or anti-LMO4 antisera (lane 2), then blotted using anti-CtIP monoclonal antibody.” for “cells.”

[5] = biological target: T4, endogenous BRCA1 of human HBL100 breast epithelial cells (human, UniProt P38398 1-1863); experiment: immunoprecipitation of HBL100 nuclear lysates with rat anti-LMO4 monoclonal / anti-BRCA1 western blot (FIG. 9B)
T4 construct: mature; also called native BRCA1; BRCA1 (220 kD)
T4 sequence (P38398 whole entry): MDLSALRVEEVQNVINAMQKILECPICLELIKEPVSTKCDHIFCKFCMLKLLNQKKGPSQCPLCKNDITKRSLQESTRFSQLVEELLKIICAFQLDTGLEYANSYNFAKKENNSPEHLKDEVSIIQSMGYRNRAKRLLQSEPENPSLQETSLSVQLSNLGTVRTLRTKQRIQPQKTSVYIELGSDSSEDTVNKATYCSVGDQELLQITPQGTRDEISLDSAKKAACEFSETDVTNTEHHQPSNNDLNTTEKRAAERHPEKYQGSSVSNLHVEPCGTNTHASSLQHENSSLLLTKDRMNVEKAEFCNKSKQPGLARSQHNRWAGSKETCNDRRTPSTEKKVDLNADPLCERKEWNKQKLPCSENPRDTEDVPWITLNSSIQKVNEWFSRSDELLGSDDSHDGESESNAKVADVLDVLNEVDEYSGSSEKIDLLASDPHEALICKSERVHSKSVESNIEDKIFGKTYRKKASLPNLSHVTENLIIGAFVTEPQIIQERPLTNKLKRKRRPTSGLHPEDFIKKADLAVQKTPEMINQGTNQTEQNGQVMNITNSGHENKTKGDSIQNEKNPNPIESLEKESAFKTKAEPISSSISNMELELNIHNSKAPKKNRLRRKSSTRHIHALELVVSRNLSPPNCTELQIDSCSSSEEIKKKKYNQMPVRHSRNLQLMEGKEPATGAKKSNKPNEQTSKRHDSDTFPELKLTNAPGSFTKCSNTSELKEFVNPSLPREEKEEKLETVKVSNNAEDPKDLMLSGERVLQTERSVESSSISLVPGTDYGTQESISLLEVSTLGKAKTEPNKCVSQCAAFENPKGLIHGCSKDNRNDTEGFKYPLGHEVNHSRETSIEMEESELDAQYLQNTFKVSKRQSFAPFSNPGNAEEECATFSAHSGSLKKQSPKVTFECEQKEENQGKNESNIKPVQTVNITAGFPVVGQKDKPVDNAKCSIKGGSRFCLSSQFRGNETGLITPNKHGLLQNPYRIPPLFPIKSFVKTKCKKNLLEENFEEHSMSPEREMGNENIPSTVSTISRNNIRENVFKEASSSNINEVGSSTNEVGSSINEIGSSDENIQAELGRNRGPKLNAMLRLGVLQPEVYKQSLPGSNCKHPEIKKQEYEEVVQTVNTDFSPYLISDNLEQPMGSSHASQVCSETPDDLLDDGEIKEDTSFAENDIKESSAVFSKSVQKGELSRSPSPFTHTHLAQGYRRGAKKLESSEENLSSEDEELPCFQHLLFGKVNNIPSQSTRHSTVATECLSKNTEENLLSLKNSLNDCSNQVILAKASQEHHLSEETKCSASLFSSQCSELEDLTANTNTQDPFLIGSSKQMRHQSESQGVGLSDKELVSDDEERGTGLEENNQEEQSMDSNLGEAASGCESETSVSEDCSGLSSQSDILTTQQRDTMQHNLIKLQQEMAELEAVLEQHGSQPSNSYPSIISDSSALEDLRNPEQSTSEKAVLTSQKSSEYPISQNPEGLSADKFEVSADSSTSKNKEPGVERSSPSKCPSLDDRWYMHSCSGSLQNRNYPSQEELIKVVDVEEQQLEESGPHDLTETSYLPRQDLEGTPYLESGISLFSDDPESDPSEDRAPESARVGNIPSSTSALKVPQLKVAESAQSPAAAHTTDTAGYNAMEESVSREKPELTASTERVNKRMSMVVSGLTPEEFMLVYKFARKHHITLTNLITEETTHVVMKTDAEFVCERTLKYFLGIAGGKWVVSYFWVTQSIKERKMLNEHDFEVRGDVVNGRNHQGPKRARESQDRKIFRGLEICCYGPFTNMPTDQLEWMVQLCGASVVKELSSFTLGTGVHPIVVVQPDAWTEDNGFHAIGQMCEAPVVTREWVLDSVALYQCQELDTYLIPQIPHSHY
Text: Nuclear lysates were immunoprecipitated with a rat anti-LMO4 monoclonal (lane 2) or control antibody (lane 3), then immunoblotted with anti-BRCA1 (upper panel) or anti-CtIP (middle panel) monoclonal antibody. The immunoprecipitate was divided between two SDS-polyacrylamide gels, one of which underwent extended electrophoresis for detection of BRCA1 (220 kD) while the other was immunoblotted with anti-CtIP antibody. As a control, immunoprecipitate was also blotted with anti-LMO4 monoclonal antibody (lower panel). Lysate from HBL100 cells was loaded in an adjacent lane to provide a size control for the respective proteins (lane 1), indicated by arrows. C, Interaction between LMO4, CtIP, BRCA1 and Ldb1 in mammalian cells. […] Western blot analysis confirmed high level expression of individual proteins in these transfectants (lane 1).
For detection of endogenous proteins, nuclear extracts from human HBL100 cells were prepared (Watters, D., Khanna, K. K., Beamish, H., Birrell, G., Spring, K., Kedar, P., Gatei, M., Stenzel, D., Hobson, K., Kozlov, S., Zhang, N., Farrell, A., Ramsay, J., Gatti, R., and Lavin, M. (1997) Oncogene 14(16), 1911-21). Proteins were immunoprecipitated with either anti-LMO4 rabbit antisera or a rat anti-LMO4 monoclonal antibody and protein G sepharose, and fractionated by SDS-PAGE. […]

CtIP (residues 45-897), human, from pCMV-HA-ns311, sequence (Q99708 45-897 limits assumed): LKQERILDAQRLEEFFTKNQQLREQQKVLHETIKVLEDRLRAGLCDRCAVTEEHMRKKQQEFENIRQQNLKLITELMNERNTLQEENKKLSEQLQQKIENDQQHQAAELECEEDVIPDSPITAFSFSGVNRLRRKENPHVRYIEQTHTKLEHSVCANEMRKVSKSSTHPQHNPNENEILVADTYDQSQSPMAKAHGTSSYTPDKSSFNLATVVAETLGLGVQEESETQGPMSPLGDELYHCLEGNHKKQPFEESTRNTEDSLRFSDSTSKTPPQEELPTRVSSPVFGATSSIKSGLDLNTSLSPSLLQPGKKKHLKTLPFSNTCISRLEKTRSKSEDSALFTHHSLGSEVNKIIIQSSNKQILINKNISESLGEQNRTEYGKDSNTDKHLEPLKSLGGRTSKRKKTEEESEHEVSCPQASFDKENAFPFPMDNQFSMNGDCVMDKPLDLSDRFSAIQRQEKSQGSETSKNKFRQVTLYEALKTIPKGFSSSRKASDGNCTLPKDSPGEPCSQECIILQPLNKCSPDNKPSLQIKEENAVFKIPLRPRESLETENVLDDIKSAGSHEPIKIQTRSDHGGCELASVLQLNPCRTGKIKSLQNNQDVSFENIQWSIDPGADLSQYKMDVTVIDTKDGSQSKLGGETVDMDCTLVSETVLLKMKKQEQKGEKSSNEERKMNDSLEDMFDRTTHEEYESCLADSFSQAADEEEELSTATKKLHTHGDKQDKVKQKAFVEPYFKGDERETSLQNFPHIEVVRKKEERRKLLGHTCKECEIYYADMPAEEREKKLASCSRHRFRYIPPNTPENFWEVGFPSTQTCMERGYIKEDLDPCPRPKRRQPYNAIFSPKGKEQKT

binding result [1]: no binding
B1: Flag-tagged second LIM domain of LMO4 (residues 79-165) (other, UniProt P61968 79-165, looked up, not shown: small tags and cut ends)
chain: RLFGNSGACSACGQSIPASELVMRAQGNVYHLKCFTCSTCRNRLVPGDRFHYINGSLFCEHDRPTALINGHLNSLQSNPLLPDQKVC
notes: also called LIM2

transcription of the Gal4-CAT reporter gene in 293T cells (CAT ELISA) [2]: ~3 fold | binding result (HA-CtIP (59-320)): no binding | binding result (HA-CtIP (281-620)): no binding
B2: Flag-tagged LMO4 (full-length) (other, UniProt P61968 1-165, looked up, not shown: small tags and cut ends)
chain: MVNPGSSSQPPPVTAGSLSWKRCAGCGGKIADRFLLYAMDSYWHSRCLKCSCCQAQLGDIGTSCYTKSGMILCRNDYIRLFGNSGACSACGQSIPASELVMRAQGNVYHLKCFTCSTCRNRLVPGDRFHYINGSLFCEHDRPTALINGHLNSLQSNPLLPDQKVC
notes: mature; also called Flag-LMO4; LM04

binding result [3]: binds
B3: GST-LMO4 fusion protein (full-length mouse LMO4 in pGEX-2T) (other, UniProt P61969 1-165, looked up)
chain: B2 chain
notes: mature; Expressed in bacterial strain UT5600, immobilised on glutathione sepharose; not shown: glutathione-S-transferase as encoded by pGEX-2T; linker to LMO4 not described

binding result [4]: binds | binding result [5]: binds
B4: endogenous LMO4 of human HBL100 breast epithelial cells (other, UniProt P61968 1-165, looked up)
chain: B2 chain
notes: mature; also called native LMO4; 17 kD LMO4 protein

From patent publication US20050048528A1 (WALTER AND ELIZA HALL INSTITUTE OF MEDICAL RESEARCH, published 2005)
